Test results: the supplement of paper PMC10724198
± gives the standard deviation of the averaged measurements.

test system: Saccharomyces cerevisiae; experiment: protein stability index of tFT-peptide fusion (C-terminal peptide) (PSI (0-1 scale)); higher = more stable (slower turnover); conditions: genetic background: wild type; temperature: 30 C
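Also: PSI is a weighted mean of sequencing reads over stability bins, variants kept only with over 10 reads, mCherry proximal and sfGFP distal, peptide attached via GGGS linker.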

Going from RSCPILLLSFPL to RSFPLRLLSLFV, the protein stability index falls from 0.62297 ± 0.00052 to 0.585 ± 0.019.

RSGGYPGLLLFN and RSGRGRRGVGWV are within error of each other in protein stability index: 0.6227 ± 0.0053 for the first, 0.655 ± 0.038 for the second.

Going from RSGSRNYPGFPR to RSIFLSRFVIGC, the protein stability index falls from 0.764 ± 0.027 to 0.682 ± 0.018.

RSINTETPSKNE and RSIYEFVPIRYV are within error of each other in protein stability index: 0.613 ± 0.056 for the first, 0.594 ± 0.028 for the second.

Compared with RSPGSVSVGGVV, RSPHGLRSRIQR is higher in protein stability index: 0.615 ± 0.021 for the first, 0.72 ± 0.037 for the second.

RSPLPFPGASVP and RSPRLRSRVRVP are within error of each other in protein stability index: 0.747 ± 0.039 for the first, 0.639 ± 0.083 for the second.

First: RSPSTRHVGLSW
Second: RSRHRRQDGKKT
The protein stability index of the first is higher: 0.6696 ± 0.00085 for the first, 0.64 ± 0.029 for the second.

Going from RSRPPPPLLPSV to RSSECNQLYTHK, the protein stability index falls from 0.8206 ± 0.0072 to 0.682 ± 0.065.

RSTPALRPVDLE and RSTSPCPPTVSP are within error of each other in protein stability index: 0.707 ± 0.049 for the first, 0.641 ± 0.091 for the second.

Going from RSTTDNADRILY to RSVVLPSFLSPH, the protein stability index falls from 0.7299 ± 0.0022 to 0.699 ± 0.017.

RTDRIVGGNERV and RTFVSLLTSSSH are within error of each other in protein stability index: 0.661 ± 0.0072 for the first, 0.83 ± 0.17 for the second.

Going from RTGLLLLVQDFR to RTGSCSCQRKPE, the protein stability index falls from 0.703 ± 0.018 to 0.663 ± 0.017.

RTHLVRRHGEAR and RTKETTTRQKKK are within error of each other in protein stability index: 0.697 ± 0.02 for the first, 0.708 ± 0.052 for the second.

RTKNMRRIKEKG and RTKVSENLNEKK are within error of each other in protein stability index: 0.688 ± 0.046 for the first, 0.681 ± 0.032 for the second.

RTLYAGVVGGNG and RTPLPPPRPSTY are within error of each other in protein stability index: 0.734 ± 0.086 for the first, 0.719 ± 0.049 for the second.

RTPSHPLPHPHS and RTSGRIASLPGP are within error of each other in protein stability index: 0.677 ± 0.12 for the first, 0.617 ± 0.031 for the second.

RTSPRMAPLRTH and RTTAPPIPLPSP are within error of each other in protein stability index: 0.713 ± 0.067 for the first, 0.729 ± 0.042 for the second.

Compared with RTTKRKIKIIGI, RVCSGYSRLRFA is lower in protein stability index: 0.709 ± 0.013 for the first, 0.561 ± 0.085 for the second.

First: RVDTRKQNKNSM
Second: RVEITGVAVTRC
The protein stability index of the first is higher: 0.693 ± 0.019 for the first, 0.642 ± 0.0082 for the second.

RVFVRFGSCAGG and RVGGRVSGGGGL are within error of each other in protein stability index: 0.679 ± 0.059 for the first, 0.654 ± 0.027 for the second.

Going from RVPNSYELRCFR to RVPPPTSPPSPP, the protein stability index rises from 0.544 ± 0.038 to 0.694 ± 0.012.

Going from RVSEPRRPPLGR to RVSGILQHFTSA, the protein stability index rises from 0.65 ± 0.024 to 0.7309 ± 0.0058.

RVSWGRTGTLRN and RVTMLPSSQRGI are within error of each other in protein stability index: 0.681 ± 0.018 for the first, 0.651 ± 0.033 for the second.

RVTPGLSIFFWP and RVVCFPAPLMPR are within error of each other in protein stability index: 0.729 ± 0.0094 for the first, 0.705 ± 0.05 for the second.

RVVDEPRDFQVR and RVVPSVSVWLPP are within error of each other in protein stability index: 0.6888 ± 0.0043 for the first, 0.663 ± 0.052 for the second.

RWKLRLFLLVPT and RWLGWRAGGAAG are within error of each other in protein stability index: 0.602 ± 0.044 for the first, 0.662 ± 0.071 for the second.

Compared with RWPSVGFTAHNV, RWSPLLPPQVSL is higher in protein stability index: 0.571 for the first, 0.683 ± 0.019 for the second.

RYASSRTLFAAV and RYGLSLLQASRR are within error of each other in protein stability index: 0.672 ± 0.069 for the first, 0.679 ± 0.081 for the second.

RYLQAGDYTKVY and RYPSAPPKISAS are within error of each other in protein stability index: 0.695 ± 0.1 for the first, 0.613 ± 0.0083 for the second.

RYQMVTGPPQRH and RYVVTVQGSGGE are within error of each other in protein stability index: 0.6921 ± 0.004 for the first, 0.688 ± 0.045 for the second.

First: SAAVDSPIFPSS
Second: SAELGHTNLCRS
The protein stability index of the first is higher: 0.6916 ± 0.00075 for the first, 0.6781 ± 0.0041 for the second.

SAFSSSLTALPP and SAGGARSLQMFC are within error of each other in protein stability index: 0.653 ± 0.022 for the first, 0.66 ± 0.027 for the second.

Going from SAGHHACRRYAG to SAGVTGREVFVG, the protein stability index falls from 0.683 ± 0.037 to 0.631 ± 0.015.

Going from SALNKPLTTESG to SAPQPPFPFPPS, the protein stability index rises from 0.6586 ± 0.0021 to 0.696 ± 0.0093.

SAPRFPARFYPL and SAPRRPPLIFPG are within error of each other in protein stability index: 0.66705 ± 0.0003 for the first, 0.672 ± 0.11 for the second.

SARPDLAERHRP and SASAILPWAIKL are within error of each other in protein stability index: 0.673 ± 0.013 for the first, 0.639 ± 0.075 for the second.

Going from SASLPSPPFPSP to SASSLPVVAARA, the protein stability index falls from 0.649 ± 0.054 to 0.544 ± 0.021.

SASVLVLRRSSP and SCARARFAPHHS are within error of each other in protein stability index: 0.732 ± 0.074 for the first, 0.734 ± 0.0092 for the second.

Compared with SCCSLCKAVRNL, SCFVAWAFCGWY is lower in protein stability index: 0.718 ± 0.054 for the first, 0.554 ± 0.0084 for the second.

SCFVWAFRCWGF and SCGWWWGGGAGG are within error of each other in protein stability index: 0.621 ± 0.043 for the first, 0.656 ± 0.041 for the second.

SCHEARWEVVMW and SCHGGWFLHVFT are within error of each other in protein stability index: 0.771 ± 0.17 for the first, 0.645 ± 0.018 for the second.

SCKARPLVAASD and SCLPPSRPSSAL are within error of each other in protein stability index: 0.66 ± 0.044 for the first, 0.629 ± 0.019 for the second.

First: SCLSGALPPFLA
Second: SCLSLALYASHF
The protein stability index of the first is higher: 0.668 ± 0.042 for the first, 0.56 ± 0.033 for the second.

SCLYPGLCLSYF and SCMSVRKSSPRS are within error of each other in protein stability index: 0.674 ± 0.0069 for the first, 0.691 ± 0.044 for the second.

SCPAPAALPLPR and SCPPVLFFPFPW are within error of each other in protein stability index: 0.674 ± 0.026 for the first, 0.705 ± 0.051 for the second.

First: SCRLALPPSFLS
Second: SCYGPRAPFHSP
The protein stability index of the first is higher: 0.706 ± 0.024 for the first, 0.581 ± 0.074 for the second.

SCYHGDYCTVAW and SDEIKTLGLRKK are within error of each other in protein stability index: 0.7062 ± 0.0017 for the first, 0.683 ± 0.025 for the second.

First: SDPLRLPNTCQH
Second: SDSAPPPAALPH
The protein stability index of the first is lower: 0.669 ± 0.009 for the first, 0.7263 ± 0.0029 for the second.

First: SDSSRRVFDVRR
Second: SDTHYLAGELCT
The protein stability index of the first is higher: 0.705 ± 0.046 for the first, 0.596 ± 0.034 for the second.

SDVAWVEAPPRS and SECLCVRDRCGG are within error of each other in protein stability index: 0.678 ± 0.097 for the first, 0.685 ± 0.078 for the second.

SELVARGGGGGW and SESVGLCLGVTW are within error of each other in protein stability index: 0.728 ± 0.07 for the first, 0.767 ± 0.05 for the second.

First: SEVFAVGITGVI
Second: SFAPPLRCPPSS
The protein stability index of the first is lower: 0.6788 ± 0.0039 for the first, 0.709 ± 0.02 for the second.

SFDPCLCTLSLL and SFDPPYALLPPP are within error of each other in protein stability index: 0.6961 ± 0.0049 for the first, 0.685 ± 0.02 for the second.

SFIFTLRRSRPR and SFLGYAVFPYKG are within error of each other in protein stability index: 0.667 ± 0.012 for the first, 0.6808 ± 0.0041 for the second.

SFLVPLTAHISP and SFPLPSLSSPSS are within error of each other in protein stability index: 0.673 ± 0.083 for the first, 0.61 ± 0.075 for the second.

SFPPFSPLYSPP and SFPPPLPPPLHP are within error of each other in protein stability index: 0.717 ± 0.067 for the first, 0.721 ± 0.06 for the second.

SFQCTCLSPCTG and SFRPPSTPRRRT are within error of each other in protein stability index: 0.652 ± 0.07 for the first, 0.695 ± 0.03 for the second.

First: SFRYVGLTRVFG
Second: SFSCYFPLGFFG
The protein stability index of the first is lower: 0.592 ± 0.032 for the first, 0.7416 ± 0.001 for the second.

Going from SFSLSMFVTYSF to SFSLVATESPVT, the protein stability index rises from 0.505 ± 0.03 to 0.709 ± 0.052.

SFSRLYGCVPRD and SFSSAVIPPFAP are within error of each other in protein stability index: 0.678 ± 0.0098 for the first, 0.728 ± 0.053 for the second.

SFTLPPPLLSRT and SFVDDILVRPIA are within error of each other in protein stability index: 0.747 ± 0.008 for the first, 0.715 ± 0.05 for the second.

First: SFVGGKLRTEYS
Second: SFVSDYIILIVL
The protein stability index of the first is higher: 0.71 ± 0.068 for the first, 0.497 ± 0.081 for the second.

SFWNLFAGWYVI and SGAGVGGQVAVG are within error of each other in protein stability index: 0.685 ± 0.03 for the first, 0.717 ± 0.061 for the second.

First: SGDVGVGHWVGG
Second: SGEKKPTKGTRT
The protein stability index of the first is higher: 0.692 ± 0.022 for the first, 0.57 ± 0.055 for the second.

SGEVSYVYVGNK and SGFLLSPPRPSF are within error of each other in protein stability index: 0.6553 ± 0.0011 for the first, 0.693 ± 0.042 for the second.

SGGAEGVRAGAA and SGGQDSFVLRLG are within error of each other in protein stability index: 0.715 ± 0.081 for the first, 0.6687 ± 0.0015 for the second.

SGGRGAILVSVV and SGGVKGKKKGEK are within error of each other in protein stability index: 0.647 ± 0.078 for the first, 0.702 ± 0.043 for the second.

SGHGFFMCLFRC and SGIEAGAELGVG are within error of each other in protein stability index: 0.552 ± 0.028 for the first, 0.567 ± 0.011 for the second.

SGIEHVLIVYDT and SGIRGWNLGEMW are within error of each other in protein stability index: 0.679 ± 0.11 for the first, 0.7152 ± 0.0068 for the second.

SGKIDKGAIAIS and SGLPLLSSYATR are within error of each other in protein stability index: 0.663 ± 0.049 for the first, 0.72 ± 0.048 for the second.

SGLQPADMVFFR and SGPSIPCFLYSS are within error of each other in protein stability index: 0.749 ± 0.056 for the first, 0.698 ± 0.013 for the second.

SGSFQGNVRVPC and SGSRFRTVRAPE are within error of each other in protein stability index: 0.676 ± 0.017 for the first, 0.654 ± 0.032 for the second.

SGSRRTSRVGSR and SGSRWYYSLGRG are within error of each other in protein stability index: 0.721 ± 0.0087 for the first, 0.709 ± 0.043 for the second.

SGSSLCSVGWLV and SGSWRFYPSTTC are within error of each other in protein stability index: 0.718 ± 0.044 for the first, 0.706 ± 0.056 for the second.

SGTRDELVFVAV and SGVEGTRQGSVS are within error of each other in protein stability index: 0.6755 ± 0.0061 for the first, 0.711 ± 0.068 for the second.

SGVLKHLRKESS and SGVRSPALLGRC are within error of each other in protein stability index: 0.641 ± 0.018 for the first, 0.68 ± 0.042 for the second.

First: SHGELLLGPVFL
Second: SHGQAPFNVLVA
The protein stability index of the first is higher: 0.748 ± 0.009 for the first, 0.596 ± 0.025 for the second.

First: SHHKAFFDLVFM
Second: SHLFPCRSSFPP
The protein stability index of the first is higher: 0.7578 ± 0.0051 for the first, 0.656 ± 0.037 for the second.

Going from SHLGPYPAPARP to SHLKEHREEELE, the protein stability index falls from 0.7185 ± 0.006 to 0.647 ± 0.0097.

SHLSTLSHPPPP and SHRLPPPPPPPS are within error of each other in protein stability index: 0.637 ± 0.043 for the first, 0.758 ± 0.14 for the second.
